Columns and labels:
[1] = target: T1, recombinant human CD40_ECD (human, UniProt P25942 21-193); assay: SPR Biacore T200, huCD40 ECD analyte, apparent KD
T1 construct: also called human CD40 extra cellular domain
Experimental: The capacity of the bispecific constructs to bind human CD40 was assessed by surface plasmon resonance (SPR). […] Bulk refractive index differences were corrected by subtracting the response obtained from a goat anti human F(ab′)2 surface. Blank injections are also subtracted (=double referencing). For calculation of apparent KD and other kinetic parameters the Langmuir 1:1 model was used. The apparent Kd was calculated using the Biacore™ B4000 evaluation software (version 1.1).

recombinant human FAP = target: T2, recombinant human FAP (human, UniProt Q12884 26-760); assay: SPR, huFAP captured (anti-His), Ab analyte
T2 construct: exact construct not described; also called FAP ECD; not shown: The histidine tag (and any linker to it) implied by capture on an anti-histidine antibody
Experimental: Around 12000 resonance units (RU) of the capturing system (15 μg/ml anti-histidine antibody; Order Code: 28995056; GE Healthcare Bio-Sciences AB, Sweden) were coupled on a CMS chip (GE Healthcare BR-1005-30) at pH 4.5 by using an amine coupling kit supplied by the GE Healthcare. Running buffer for Immobilization was HBS-N pH 7.4 (10 mM HEPES, 150 mM NaCl, pH 7.4, GE Healthcare). For the following kinetic characterization running buffer was PBS-P pH 7.4 (20 mM phosphate buffer, 2.7 mM KCl, 137 mM NaCl, 0.05% surfactant P20). The flow cell was set to 25° C.—and the sample block set to 12° C.—and primed with running buffer twice. […] The dissociation phase was monitored for up to 720 s and triggered by switching from the sample solution to running buffer. The surface was regenerated by washing with 10 mM Glycine pH 1.5 for 60 s at a flow rate of 30 μl/min. Bulk refractive index differences were corrected by subtracting the response obtained from an anti-histidine surface. Blank injections are also subtracted (=double referencing). For calculation of KD and kinetic parameters the Langmuir 1:1 model was used.

Binder | Kd [1] [nM] | koff [1] [s⁻¹] | kon [1] [M⁻¹ s⁻¹] | t 1/2 [1] [min] | Kd (recombinant human FAP) [nM] | koff (recombinant human FAP) [s⁻¹] | kon (recombinant human FAP) [M⁻¹ s⁻¹] | t 1/2 (recombinant human FAP) [min]
FAP (4B9)-CD40 Contorsbody P1AE1800 (bispecific antibody, IgG1, 2+1 contorsbody; IgG1 Fc knob/hole, P329G LALA) chain 1: not shown chain 2: DIQMTQSPSSLSASVGDRVTITCRSSQSLVHSNGNTFLHWYQQKPGKAPKLLIYTVSNRFSGVPSRFSGSGSGTDFTLTISSLQPEDFATYFCSQTTHVPWTFGGGTKVEIKRTVAAPSVFIFPPSDEQLKSGTASVVCLLNNFYPREAKVQWKVDNALQSGNSQESVTEQDSKDSTYSLSSTLTLSKADYEKHKVYACEVTHQGLSSPVTKSFNRGECGGGGSGGGGSDKTHTCPPCPAPEAAGGPSVFLFPPKPKDTLMISRTPEVTCVVVDVSHEDPEVKFNWYVDGVEVHNAKTKPREEQYNSTYRVVSVLTVLHQDWLNGKEYKCKVSNKALGAPIEKTISKAKGQPREPQVCTLPPSRDELTKNQVSLSCAVKGFYPSDIAVEWESNGQPENNYKTTPPVLDSDGSFFLVSKLTVDKSRWQQGNVFSCSVMHEALHNHYTQKSLSLSPGKGGGGSGGGGSEVQLLESGGGLVQPGGSLRLSCAASGYSFTGYYIHWVRQAPGKGLEWVGRVIPNAGGTSYNQKFKGRFTISVDNSKNTAYLQMNSLRAEDTAVYYCAREGIYWWGQGTTVTVSSASTKGPSVFPLAPSSKSTSGGTAALGCLVKDYFPEPVTVSWNSGALTSGVHTFPAVLQSSGLYSLSSVVTVPSSSLGTQTYICNVNHKPSNTKVDKKVEPKSCGGGGSGGGGSGGGSGGGGSEIVLTQSPGTLSLSPGERATLSCRASQSVTSSYLAWYQQKPGQAPRLLINVGSRRATGIPDRFSGSGSGTDFTLTISRLEPEDFAVYYCQQGIMLPPTFGQGTKVEIKSSASTKGPSVFPLAPSSKSTSGGTAALGCLVKDYFPEPVTVSWNSGALTSGVHTFPAVLQSSGLYSLSSVVTVPSSSLGTQTYICNVNHKPSNTKVDKKVEPKSC | 9.43 | 0.0127 | 1.35e+06 | 0.917 | 9.07 | 0.000778 | 85700 | 14.8
FAP (4B9)-CD40 Contorsbody P1AE1799 (bispecific antibody, IgG1, 2+1 contorsbody; IgG1 Fc knob/hole, P329G LALA) chain 1: not shown chain 2: EVQLLESGGGLVQPGGSLRLSCAASGYSFTGYYIHWVRQAPGKGLEWVGRVIPNAGGTSYNQKFKGRFTISVDNSKNTAYLQMNSLRAEDTAVYYCAREGIYWWGQGTTVTVSSASTKGPSVFPLAPSSKSTSGGTAALGCLVKDYFPEPVTVSWNSGALTSGVHTFPAVLQSSGLYSLSSVVTVPSSSLGTQTYICNVNHKPSNTKVDKKVEPKSCGGGGSGGGGSDKTHTCPPCPAPEAAGGPSVFLFPPKPKDTLMISRTPEVTCVVVDVSHEDPEVKFNWYVDGVEVHNAKTKPREEQYNSTYRVVSVLTVLHQDWLNGKEYKCKVSNKALGAPIEKTISKAKGQPREPQVCTLPPSRDELTKNQVSLSCAVKGFYPSDIAVEWESNGQPENNYKTTPPVLDSDGSFFLVSKLTVDKSRWQQGNVFSCSVMHEALHNHYTQKSLSLSPGKGGGGSGGGGSDIQMTQSPSSLSASVGDRVTITCRSSQSLVHSNGNTFLHWYQQKPGKAPKLLIYTVSNRFSGVPSRFSGSGSGTDFTLTISSLQPEDFATYFCSQTTHVPWTFGGGTKVEIKRTVAAPSVFIFPPSDEQLKSGTASVVCLLNNFYPREAKVQWKVDNALQSGNSQESVTEQDSKDSTYSLSSTLTLSKADYEKHKVYACEVTHQGLSSPVTKSFNRGECGGGGSGGGGSGGGSGGGGSEIVLTQSPGTLSLSPGERATLSCRASQSVTSSYLAWYQQKPGQAPRLLINVGSRRATGIPDRFSGSGSGTDFTLTISRLEPEDFAVYYCQQGIMLPPTFGQGTKVEIKSSASTKGPSVFPLAPSSKSTSGGTAALGCLVKDYFPEPVTVSWNSGALTSGVHTFPAVLQSSGLYSLSSVVTVPSSSLGTQTYICNVNHKPSNTKVDKKVEPKSC | 15.7 | 0.0151 | 957000 | 0.767 | 4.58 | 0.000253 | 55300 | 45.7
FAP (4B9)-CD40 Contorsbody P1AE1901 (bispecific antibody, IgG1, 2+1 contorsbody; IgG1 Fc knob/hole, P329G LALA) chain 1: not shown chain 2: DIQMTQSPSSLSASVGDRVTITCRSSQSLVHSNGNTFLHWYQQKPGKAPKLLIYTVSNRFSGVPSRFSGSGSGTDFTLTISSLQPEDFATYFCSQTTHVPWTFGGGTKVEIKRTVAAPSVFIFPPSDEQLKSGTASVVCLLNNFYPREAKVQWKVDNALQSGNSQESVTEQDSKDSTYSLSSTLTLSKADYEKHKVYACEVTHQGLSSPVTKSFNRGECGGGGSGGGGSDKTHTCPPCPAPEAAGGPSVFLFPPKPKDTLMISRTPEVTCVVVDVSHEDPEVKFNWYVDGVEVHNAKTKPREEQYNSTYRVVSVLTVLHQDWLNGKEYKCKVSNKALGAPIEKTISKAKGQPREPQVCTLPPSRDELTKNQVSLSCAVKGFYPSDIAVEWESNGQPENNYKTTPPVLDSDGSFFLVSKLTVDKSRWQQGNVFSCSVMHEALHNHYTQKSLSLSPGKGGGGSGGGGSEVQLLESGGGLVQPGGSLRLSCAASGYSFTGYYIHWVRQAPGKGLEWVGRVIPNAGGTSYNQKFKGRFTISVDNSKNTAYLQMNSLRAEDTAVYYCAREGIYWWGQGTTVTVSSASTKGPSVFPLAPSSKSTSGGTAALGCLVKDYFPEPVTVSWNSGALTSGVHTFPAVLQSSGLYSLSSVVTVPSSSLGTQTYICNVNHKPSNTKVDKKVEPKSCGGGGSGGGGSGGGSGGGGSEVQLLESGGGLVQPGGSLRLSCAASGFTFSSYAMSWVRQAPGKGLEWVSAIIGSGASTYYADSVKGRFTISRDNSKNTLYLQMNSLRAEDTAVYYCAKGWFGGFNYWGQGTLVTVSSASVAAPSVFIFPPSDEQLKSGTASVVCLLNNFYPREAKVQWKVDNALQSGNSQESVTEQDSKDSTYSLSSTLTLSKADYEKHKVYACEVTHQGLSSPVTKSFNRGEC | 6.98 | 0.00692 | 991000 | 1.67 | 7.05 | 0.000269 | 38200 | 43

The remaining lines, values ahead:

Kd [1] [nM] | koff [1] [s⁻¹] | kon [1] [M⁻¹ s⁻¹] | t 1/2 [1] [min] | Kd (recombinant human FAP) [nM] | koff (recombinant human FAP) [s⁻¹] | kon (recombinant human FAP) [M⁻¹ s⁻¹] | t 1/2 (recombinant human FAP) [min] | Binder
18.7 | 0.0145 | 776000 | 0.8 | 5.33 | 0.000288 | 54100 | 40.1 | FAP (4B9)-CD40 Contorsbody P1AE1902 (bispecific antibody, IgG1, 2+1 contorsbody; IgG1 Fc knob/hole, P329G LALA) chain 1: not shown chain 2: EVQLLESGGGLVQPGGSLRLSCAASGYSFTGYYIHWVRQAPGKGLEWVGRVIPNAGGTSYNQKFKGRFTISVDNSKNTAYLQMNSLRAEDTAVYYCAREGIYWWGQGTTVTVSSASTKGPSVFPLAPSSKSTSGGTAALGCLVKDYFPEPVTVSWNSGALTSGVHTFPAVLQSSGLYSLSSVVTVPSSSLGTQTYICNVNHKPSNTKVDKKVEPKSCGGGGSGGGGSDKTHTCPPCPAPEAAGGPSVFLFPPKPKDTLMISRTPEVTCVVVDVSHEDPEVKFNWYVDGVEVHNAKTKPREEQYNSTYRVVSVLTVLHQDWLNGKEYKCKVSNKALGAPIEKTISKAKGQPREPQVCTLPPSRDELTKNQVSLSCAVKGFYPSDIAVEWESNGQPENNYKTTPPVLDSDGSFFLVSKLTVDKSRWQQGNVFSCSVMHEALHNHYTQKSLSLSPGKGGGGSGGGGSDIQMTQSPSSLSASVGDRVTITCRSSQSLVHSNGNTFLHWYQQKPGKAPKLLIYTVSNRFSGVPSRFSGSGSGTDFTLTISSLQPEDFATYFCSQTTHVPWTFGGGTKVEIKRTVAAPSVFIFPPSDEQLKSGTASVVCLLNNFYPREAKVQWKVDNALQSGNSQESVTEQDSKDSTYSLSSTLTLSKADYEKHKVYACEVTHQGLSSPVTKSFNRGECGGGGSGGGGSGGGSGGGGSEVQLLESGGGLVQPGGSLRLSCAASGFTFSSYAMSWVRQAPGKGLEWVSAIIGSGASTYYADSVKGRFTISRDNSKNTLYLQMNSLRAEDTAVYYCAKGWFGGFNYWGQGTLVTVSSASVAAPSVFIFPPSDEQLKSGTASVVCLLNNFYPREAKVQWKVDNALQSGNSQESVTEQDSKDSTYSLSSTLTLSKADYEKHKVYACEVTHQGLSSPVTKSFNRGEC
17.3 | 0.0159 | 918000 | 0.733 | 4.44 | 0.000235 | 52800 | 49.2 | FAP (4B9)-CD40 Contorsbody P1AE2255 (bispecific antibody, IgG1, 2+1 contorsbody with charged residues in the CD40 Fabs; IgG1 Fc knob/hole, P329G LALA) chain 1: not shown chain 2: EVQLLESGGGLVQPGGSLRLSCAASGYSFTGYYIHWVRQAPGKGLEWVGRVIPNAGGTSYNQKFKGRFTISVDNSKNTAYLQMNSLRAEDTAVYYCAREGIYWWGQGTTVTVSSASTKGPSVFPLAPSSKSTSGGTAALGCLVEDYFPEPVTVSWNSGALTSGVHTFPAVLQSSGLYSLSSVVTVPSSSLGTQTYICNVNHKPSNTKVDEKVEPKSCGGGGSGGGGSDKTHTCPPCPAPEAAGGPSVFLFPPKPKDTLMISRTPEVTCVVVDVSHEDPEVKFNWYVDGVEVHNAKTKPREEQYNSTYRVVSVLTVLHQDWLNGKEYKCKVSNKALGAPIEKTISKAKGQPREPQVCTLPPSRDELTKNQVSLSCAVKGFYPSDIAVEWESNGQPENNYKTTPPVLDSDGSFFLVSKLTVDKSRWQQGNVFSCSVMHEALHNHYTQKSLSLSPGKGGGGSGGGGSDIQMTQSPSSLSASVGDRVTITCRSSQSLVHSNGNTFLHWYQQKPGKAPKLLIYTVSNRFSGVPSRFSGSGSGTDFTLTISSLQPEDFATYFCSQTTHVPWTFGGGTKVEIKRTVAAPSVFIFPPSDRKLKSGTASVVCLLNNFYPREAKVQWKVDNALQSGNSQESVTEQDSKDSTYSLSSTLTLSKADYEKHKVYACEVTHQGLSSPVTKSFNRGECGGGGSGGGGSGGGSGGGGSEIVLTQSPGTLSLSPGERATLSCRASQSVTSSYLAWYQQKPGQAPRLLINVGSRRATGIPDRFSGSGSGTDFTLTISRLEPEDFAVYYCQQGIMLPPTFGQGTKVEIKSSASTKGPSVFPLAPSSKSTSGGTAALGCLVKDYFPEPVTVSWNSGALTSGVHTFPAVLQSSGLYSLSSVVTVPSSSLGTQTYICNVNHKPSNTKVDKKVEPKSC
